Measured values published in patent publication US20020103152.

Tested on: Sleeping Beauty transposase (SB) (synthetic construct (salmonid Tc1-like, reconstructed)?)
Assay: cell_activity
Conditions: mouse liver, pRSV-βgeo without terminal repeats; 2-4% with repeats

“phAAT / pRSV-βgeo plasmids lacking terminal repeats” was tested. Which activity (% of hepatocytes) did it give?
The activity (% of hepatocytes) was < 0.01.
